Reference: paper PMC7294595

Target: flu-pTyr (gp130-derived phosphopeptide) (Homo sapiens)

B1: STAT3 127-711, P40763 (protein)
chain: GQANHPTAAVVTEKQQMLEQHLQDVRKRVQDLEQKMKVVENLQDDFDFNYKTLKSQGDMQDLNGNNQSVTRQKMQQLEQMLTALDQMRRSIVSELAGLLSAMEYVQKTLTDEELADWKRRQQIACIGGPPNICLDRLENWITSLAESQLQTRQQIKKLEELQQKVSYKGDPIVQHRPMLEERIVELFRNLMKSAFVVERQPCMPMHPDRPLVIKTGVQFTTKVRLLVKFPELNYQLKIKVCIDKDSGDVAALRGSRKFNILGTNTKVMNMEESNNGSLSAEFKHLTLREQRCGNGGRANCDASLIVTEELHLITFETEVYHQGLKIDLETHSLPVVVISNICQMPNAWASILWYNMLTNNPKNVNFFTKPPIGTWDQVAEVLSWQFSSTTKRGLSIEQLTTLAEKLLGPGVNYSGCQITWAKFCKENMAGKGFSFWVWLDNIIDLVKKYILALWNEGYIMGFISKERERAILSTKPPGTFLLRFSESSKEGGVTFTWVEKDISGKTQIQSVEPYTKQQLNNMSFAEIIMGYKIMDATNILVSPLVYLYPDIPKEEAFGKYCRPESQEHPEADPGSAAPYLKTKFI
Binder B1 has a Kd of 60 nM.
